In patent publication CN113603773A (FIRST HOSPITAL CHINA MEDICAL UNIV, dated 2021):

Key:
人源淀粉样蛋白42 Aβ42 单体 = target: T1, 人源淀粉样蛋白42 Aβ42 单体 (human, UniProt P05067 672-713); test: ELISA, Aβ coated at 5 μg/mL, 7B8 diluted 1:20,000, OD450
T1 construct: domain: Aβ42; Monomer preparation; also called Aβ42 mon

人源淀粉样蛋白42 Aβ42 寡聚体 = target: T2, 人源淀粉样蛋白42 Aβ42 寡聚体 (human, UniProt P05067 672-713); test: dot blot on nitrocellulose, ECL
T2 construct: domain: Aβ42; Oligomer preparation; also called Aβ42 oli
T2 sequence (P05067 672-713 limits assumed): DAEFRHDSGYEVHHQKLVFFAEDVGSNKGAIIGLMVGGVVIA

人源淀粉样蛋白42 Aβ42 纤维体 = target: T3, 人源淀粉样蛋白42 Aβ42 纤维体 (human, UniProt P05067 672-713); test: dot blot on nitrocellulose, ECL
T3 construct: domain: Aβ42; Fibril preparation; also called Aβ42 fib
T3 sequence (P05067 672-713 limits assumed): as above

Measured: binding result

T1 sequence (P05067 672-713 limits assumed): as above

B1: 靶向淀粉样蛋白的单克隆抗体7B8 (antibody, mouse IgG1, V domains shown)
VH: QVQLQQPGAELVKPGASVKLSCKTSDYSFTSYWMHWVKQRPGQGLEWIGEINPSNGRKKYNEKFKSKATLTVDTSSSTAYMQLSSLTSEDSAVYYCAREGRGYWGQGTTLTVSS
VL: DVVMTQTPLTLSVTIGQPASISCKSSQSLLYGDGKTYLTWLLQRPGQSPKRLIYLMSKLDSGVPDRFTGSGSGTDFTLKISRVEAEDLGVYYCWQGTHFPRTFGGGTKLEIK
notes: also called 抗Aβ3-10的单克隆抗体
binds: all assays above
